The values below come from publication PMC8373988 (2021).

This assay addresses biotinylated-AviTag-haBiP^T229A-V461F (residues 27–635), unmodified (Chinese hamster, UniProt G3I8R9 27-635, T229A | V461F, biotin on the N-terminal Avi-tag). The assay can be described thus: BLI; ATP-bound BiP. On the technique in general: In BLI a coated tip is dipped into the sample, and binding shifts an interference pattern.

Sequence of biotinylated-AviTag-haBiP^T229A-V461F (residues 27–635), unmodified (G3I8R9 27-635 T229A/V461F): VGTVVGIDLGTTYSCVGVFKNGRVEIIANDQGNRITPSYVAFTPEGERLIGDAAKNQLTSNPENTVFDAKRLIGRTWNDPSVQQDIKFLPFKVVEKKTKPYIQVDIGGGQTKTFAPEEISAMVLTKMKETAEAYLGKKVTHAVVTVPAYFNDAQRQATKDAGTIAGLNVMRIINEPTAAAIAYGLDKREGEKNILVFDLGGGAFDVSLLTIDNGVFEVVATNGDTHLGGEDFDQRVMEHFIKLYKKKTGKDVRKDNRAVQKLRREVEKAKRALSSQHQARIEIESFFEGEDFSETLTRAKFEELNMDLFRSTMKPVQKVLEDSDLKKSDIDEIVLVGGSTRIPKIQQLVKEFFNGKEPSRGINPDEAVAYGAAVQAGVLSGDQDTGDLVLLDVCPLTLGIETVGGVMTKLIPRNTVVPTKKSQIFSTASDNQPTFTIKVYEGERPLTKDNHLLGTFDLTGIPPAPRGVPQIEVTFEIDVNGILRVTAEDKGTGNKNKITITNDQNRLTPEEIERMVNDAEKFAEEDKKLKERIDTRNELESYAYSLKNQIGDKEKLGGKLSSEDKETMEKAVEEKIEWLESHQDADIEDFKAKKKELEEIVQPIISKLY

B1: isolated TPR domain of FICD (domain or fragment)
chain: LEARAALNQALEMKRQGKREKAQKLFMHALKMDPDFVDALTEFGIFSEEDKDIIQADYLYTRALTISPYH
By koff is commonly meant a measure of how fast the partners let go of each other. A lower koff goes with slow dissociation. Turning to B1, the koff was found to be 0.176 s⁻¹.
